Biological target: T1, BMPR2 (human, on breast cancer cells) (human, UniProt Q13873 27-1038)
T1 construct: whole, on cells; The PDX cells are described as human breast tumor cells; also called BMP Receptor 2
T1 sequence (looked up): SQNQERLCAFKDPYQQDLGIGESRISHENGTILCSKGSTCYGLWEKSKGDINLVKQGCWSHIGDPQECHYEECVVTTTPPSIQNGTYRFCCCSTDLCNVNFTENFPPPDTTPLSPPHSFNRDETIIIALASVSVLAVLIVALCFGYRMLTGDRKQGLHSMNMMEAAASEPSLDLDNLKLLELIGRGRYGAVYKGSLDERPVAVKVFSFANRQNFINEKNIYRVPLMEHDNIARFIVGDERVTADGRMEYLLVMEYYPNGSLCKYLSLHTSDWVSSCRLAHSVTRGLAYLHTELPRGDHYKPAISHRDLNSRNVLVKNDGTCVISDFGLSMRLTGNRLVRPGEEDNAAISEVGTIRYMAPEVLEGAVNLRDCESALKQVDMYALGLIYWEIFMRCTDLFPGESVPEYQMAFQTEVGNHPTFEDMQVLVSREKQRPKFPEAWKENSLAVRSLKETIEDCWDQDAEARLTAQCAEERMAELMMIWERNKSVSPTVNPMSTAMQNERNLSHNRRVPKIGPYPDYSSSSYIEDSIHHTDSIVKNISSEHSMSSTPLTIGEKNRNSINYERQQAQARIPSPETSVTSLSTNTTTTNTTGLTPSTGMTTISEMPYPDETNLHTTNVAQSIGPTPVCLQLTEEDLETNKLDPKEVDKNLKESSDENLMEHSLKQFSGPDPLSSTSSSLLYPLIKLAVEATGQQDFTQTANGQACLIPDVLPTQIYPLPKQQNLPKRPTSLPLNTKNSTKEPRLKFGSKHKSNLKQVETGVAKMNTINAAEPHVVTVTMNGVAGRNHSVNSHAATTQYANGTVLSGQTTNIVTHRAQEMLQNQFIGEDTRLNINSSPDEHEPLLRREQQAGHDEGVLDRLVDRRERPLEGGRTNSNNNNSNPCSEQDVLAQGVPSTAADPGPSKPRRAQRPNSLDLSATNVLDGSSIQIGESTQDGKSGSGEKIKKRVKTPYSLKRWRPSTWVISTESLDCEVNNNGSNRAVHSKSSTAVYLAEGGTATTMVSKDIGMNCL
Test: Proximity Ligation on sorted breast cancer PDX cells
Excerpt: Next, we examined the interaction of LEFTY-BMPR2 and BMP7-BMPR2 in different subpopulations of breast cancer cells. Tumor cells were isolated from 3 established breast cancer PDXs using flow cytometry. These models were characterized to follow the cancer stem cell paradigm. The cells were sorted based on EpCAM and CD49f cell surface markers. Different protein-protein interactions were quantified by Proximity Ligation and the cells were also simultaneously stained for pSMAD2 or pSMAD5. As shown in FIGS. 14A-14D, in the tumorigenic population the LEFTY-BMPR2 interaction is predominant, whereas the BMP7-BMPR2 interaction is predominant in non-tumorigenic population.

binding result: binds
B1: BMP7 (human, endogenous in breast cancer PDX cells) (ligand, UniProt P18075 293-431, looked up)
chain: STGSKQRSQNRSKTPKNQEALRMANVAENSSSDQRQACKKHELYVSFRDLGWQDWIIAPEGYAAYYCEGECAFPLNSYMNATNHAIVQTLVHFINPETVPKPCCAPTQLNAISVLYFDDSSNVILKKYRNMVVRACGCH

— patent US20210079400A1 (CZ BIOHUB SF, published 2021)
